Tested on: MS2 coat protein
Assay: apparent KD of MS2 coat protein; designed switch direction (-1 OFF switch, 1 ON switch): 1; higher = weaker reporter binding
Summary of the method: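 Designed RNA switches sharing common flanks were transcribed on Illumina chips by stalled E. coli RNA polymerase. They were titrated with SNAP-549-labelled MS2 coat protein, from 0.7 or 1.5 nM doubling to 3 µM, in Tris-HCl pH 7.5 buffer with KCl, MgCl2, BSA, DTT, tRNA and Tween-20. Titrations ran without input, with 200 uM small-molecule ligand, or with an oligonucleotide input. The apparent KD of each design is the median over its clusters, after curve-fitting of normalised cluster fluorescence.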

[1] = input ligand: microRNA oligo, concentration not stated
[2] = Eterna round: R95, input ligand: FMN 200 uM
[3] = Eterna round: R95, input ligand: microRNA oligo, concentration not stated
[4] = Eterna round: R95, input ligand: none

## AUAAGUUUGAUGCUCGUCUCUUCGUACAGACAUGAGGAUCACCCAUGUAGUCGGGAAGUAGCCCGGCCAGUAUGACC [Usraisqu] (Eterna round: R96, puzzle: Sensor for hsa-mir-208a)
Input ligand: FMN 200 uM
  apparent KD of MS2 coat protein: 285 nM
[1]
  apparent KD of MS2 coat protein: 38.2 nM
Input ligand: none
  apparent KD of MS2 coat protein: 248 nM

## AUAAGUUUGAUGCUCGUCUCUUCGUACAGACAUGAGGAUCACCCAUGUAGUCGGGAAGUAGCCCGGCCAGUAUGACC [Usraisqu] (puzzle: Sensor for hsa-mir-208a)
[2]
  apparent KD of MS2 coat protein: 197 nM
[3]
  apparent KD of MS2 coat protein: 40.5 nM
[4]
  apparent KD of MS2 coat protein: 468 nM

## AUAAUACAUGAGGAUCACCCAUGUAAUUUAACUUGUAAGAUCAAGGAUAUCAGCUCGUUUAGAGCUGAGAAGGUGAUCACAUGU [SSNG3/20-A3] (Eterna round: R96, puzzle: Same State NG 3)
[1]
  apparent KD of MS2 coat protein: 60.2 nM

## AUACAUGAGGAUCACCCAUGUAAUUAAUUAACUAGUAAGAUCUAGGAUAUCAGCUCGAAUAGAGCUGAGAAGGAGAUCACAUGU [SSNG3/21-A1] (Eterna round: R96, puzzle: Same State NG 3)
[1]
  apparent KD of MS2 coat protein: 31.2 nM

## AUACUCAUGUAAGGAUAUGCAGCCGUUUCGGCUGCAGAAGGUACUAUAAUACAUGAGGAUCACCCAUGUCUCUAUUAUUUAGUU [JL SSNG1 1.46] (Eterna round: R96, puzzle: Same State NG 1)
Input ligand: FMN 200 uM
  apparent KD of MS2 coat protein: 72.1 nM
[1]
  apparent KD of MS2 coat protein: 46.6 nM
Input ligand: none
  apparent KD of MS2 coat protein: 55.1 nM

## AUAGUGUACGCAGGAUAUCGAUGAGGAACAUGAGGAUCACCCAUGUUGUGAGGAUCACCCAUGUAUGAGAAGGGCGACCCAUGU [Same State NG2 S1] (Eterna round: R96, puzzle: Same State NG 2)
Input ligand: FMN 200 uM
  apparent KD of MS2 coat protein: 148 nM
[1]
  apparent KD of MS2 coat protein: 46 nM
Input ligand: none
  apparent KD of MS2 coat protein: 57.7 nM

## AUAUAACAUGAGGAUCACCCAUGUCUCUAAAGUUGAGGAUAUGGGCAGGUUAUAUCCGAACCAGAAGGCGAAUUAU [SS1 Teenbexe 7] (puzzle: Same State 1)
[2]
  apparent KD of MS2 coat protein: 74.5 nM
[3]
  apparent KD of MS2 coat protein: 46.3 nM
[4]
  apparent KD of MS2 coat protein: 102 nM

## AUAUGAGGAGCAGGAUAUGCGAAGAAGAAAGAAGUAGAAGGGCUCAUGGGACGACAUGAGGAUCACCCAUGUACUACCCGAUGA [AK SSNG1-V2-8] (Eterna round: R96, puzzle: Same State NG 1)
Input ligand: FMN 200 uM
  apparent KD of MS2 coat protein: 49.8 nM
[1]
  apparent KD of MS2 coat protein: 66.7 nM
Input ligand: none
  apparent KD of MS2 coat protein: 55.9 nM

## AUAUUACAUGAGGAUCACCCAUGUCUCUAAAGUCGAGGAUAUGGGCAGGUUAUAUCCGAACCAGAAGGCGAAUUAU [SS1 Teenbexe 9] (puzzle: Same State 1)
[2]
  apparent KD of MS2 coat protein: 66.9 nM
[3]
  apparent KD of MS2 coat protein: 317 nM
[4]
  apparent KD of MS2 coat protein: 633 nM

## AUCCUACAUGAGGAUCACCCAUGUGACGCCUCAAUAGGAUAUGCGUGUGCCUUGGCGCAUGCAGAAGGAUUGGAGC [JL Aveso mod 4] (puzzle: Same State 1)
[2]
  apparent KD of MS2 coat protein: 84.6 nM
[3]
  apparent KD of MS2 coat protein: 318 nM
[4]
  apparent KD of MS2 coat protein: 279 nM

## AUCCUACAUGAGGAUCACCCAUGUGACGCCUCGAUAGGAUAUGCGUGUGCCUUGGCGCAUGCAGAAGGAUUGUAGC [JL Aveso mod 6] (puzzle: Same State 1)
[3]
  apparent KD of MS2 coat protein: 30.5 nM

## AUCCUACAUGAGGAUCACCCAUGUGAGGCCUCAAUAGGAUAUGCGUGUGCCUUGGCGCAUGCAGAAGGAUUGAAGC [JL Aveso mod 2] (puzzle: Same State 1)
[3]
  apparent KD of MS2 coat protein: 159 nM

## AUCUCUGUGCCGCAGGAUAUACCAACGGCUACAUGAGGAUCACCCAUGUCAUACCGUCGAAAGUGGUAGAAGGGUGUGCACGAGC [Reteonar] (puzzle: Same State 2)
[2]
  apparent KD of MS2 coat protein: 17.7 nM
[3]
  apparent KD of MS2 coat protein: 90.6 nM
[4]
  apparent KD of MS2 coat protein: 113 nM

## AUGAAGAACUAAGGAUAUUGAAUACAUAUGUUUAACAUGAGGAUCACCCAUGUGGGUUGCGGUAUCGAGAAGGUAGAAUAAUAG [Mat - same State NG 2 - JL mod - D92] (Eterna round: R96, puzzle: Same State NG 2)
Input ligand: FMN 200 uM
  apparent KD of MS2 coat protein: 95.7 nM
[1]
  apparent KD of MS2 coat protein: 70.3 nM
Input ligand: none
  apparent KD of MS2 coat protein: 123 nM

## AUGCAGCCACCACAGGAUAUACGUGGAUCGACAUGAGGAUCACCCAUGUAUAUCCUAAUAAUUGCGUAGAAGGGUGGUCGGCUGG [Anatxeage] (puzzle: Same State 2)
[3]
  apparent KD of MS2 coat protein: 362 nM

## AUGCCAAAUCAAGGAUAUGGAGCCUUAUUGGCUCCAGAAGGUGGGACAUGAGGAUCACCCAUGUGGCAGUGGUCUAAUGACCAC [Fiskers NG1ss - 31] (Eterna round: R96, puzzle: Same State NG 1)
Input ligand: FMN 200 uM
  apparent KD of MS2 coat protein: 59.7 nM
[1]
  apparent KD of MS2 coat protein: 146 nM
Input ligand: none
  apparent KD of MS2 coat protein: 200 nM

## AUGCCAAAUCAAGGAUAUGGAUCCUUAUUGGAUCCAGAAGGUGGGACAUGAGGAUCACCCAUGUGGCAGUGGUCUAAUGACCAC [Fiskers NG1ss - 30] (Eterna round: R96, puzzle: Same State NG 1)
Input ligand: FMN 200 uM
  apparent KD of MS2 coat protein: 61 nM
[1]
  apparent KD of MS2 coat protein: 185 nM
Input ligand: none
  apparent KD of MS2 coat protein: 281 nM

## AUUAAACAUGAGGAUCACCCAUGUAUUAUUAUGGGAGGAUAUGCGAAUUUAAUUAAUUAAGCAGAAGGCCUAAUUA [Mat - Same State 1 - D102] (puzzle: Same State 1)
[2]
  apparent KD of MS2 coat protein: 18.7 nM
[3]
  apparent KD of MS2 coat protein: 98.3 nM
[4]
  apparent KD of MS2 coat protein: 141 nM

## AUUAAACAUGAGGAUCACCCAUGUCAACAAAGUCGAGGAUAUGGGCAAAUAAAAUAAGAACCAGAAGGCGAAUAAU [salish99_ss1_r3_048] (Eterna round: R96, puzzle: Same State 1)
[1]
  apparent KD of MS2 coat protein: 193 nM

## AUUAAACAUGAGGAUCACCCAUGUCAACAAAGUCGAGGAUAUGGGCAAAUAAAAUAAGAACCAGAAGGCGAAUAAU [salish99_ss1_r3_048] (puzzle: Same State 1)
[2]
  apparent KD of MS2 coat protein: 31.6 nM
[3]
  apparent KD of MS2 coat protein: 357 nM
[4]
  apparent KD of MS2 coat protein: 555 nM

## AUUAAACAUGAGGAUCACCCAUGUCAACAAAGUCGAGGAUAUGGGCAAAUAAAAUAAUAACCAGAAGGCGAAUAAU [salish99_ss1_r3_065] (puzzle: Same State 1)
[2]
  apparent KD of MS2 coat protein: 37.8 nM
[3]
  apparent KD of MS2 coat protein: 353 nM
[4]
  apparent KD of MS2 coat protein: 295 nM

## AUUAAACAUGAGGAUCACCCAUGUCAACAAAGUCGAGGAUAUGGGCUAAUAAAAUAAGAACCAGAAGGCGAAUAAU [salish99_ss1_r3_062] (puzzle: Same State 1)
[2]
  apparent KD of MS2 coat protein: 26.8 nM
[3]
  apparent KD of MS2 coat protein: 185 nM
[4]
  apparent KD of MS2 coat protein: 211 nM

## AUUAAUAAUCGAGGAUAUCACGUCGAAUAGACGUGAGAAGGCGAUCAUAACAUGAGGAUCACCCAUGUAUUACAUGAAGUUAAU [SSNG1/4-B1] (Eterna round: R96, puzzle: Same State NG 1)
[1]
  apparent KD of MS2 coat protein: 20 nM

## AUUAAUUAAUUAAUACAUGAGGAUCACCCAUGUAAUAAGAUCUAGGAUAUCAGCUCGAUUAGAGCUGAGAAGGAGAUCACAUGU [SSNG3/17-A2] (Eterna round: R96, puzzle: Same State NG 3)
[1]
  apparent KD of MS2 coat protein: 36.3 nM

## AUUACUAACAUAGGAUAUCAUGCGAAAAUUGCGUGAGAAGGGUGGACGCUGUCAUUCUCGGAGGACAUGAGGAUCACCCAUGUC [SameState NG1 #71] (Eterna round: R96, puzzle: Same State NG 1)
Input ligand: FMN 200 uM
  apparent KD of MS2 coat protein: 118 nM
[1]
  apparent KD of MS2 coat protein: 103 nM
Input ligand: none
  apparent KD of MS2 coat protein: 90.7 nM

## AUUAGUUAUGCAGGAUAUGAUUAACAUGAGGAUCACCCAUGUGGUGUUGUGAGUAAGGAGAGUGAUCAGAAGGGCAUUUUUUUU [JMF's solution 67] (Eterna round: R96, puzzle: Same State NG 2)
Input ligand: FMN 200 uM
  apparent KD of MS2 coat protein: 462 nM
[1]
  apparent KD of MS2 coat protein: 264 nM
Input ligand: none
  apparent KD of MS2 coat protein: 644 nM

## AUUAUACAUGAGGAUCACCCAUGUCAACGUAGUCGAGGAUAUGGGCAGCCGUGAGGCGUACUAGAAGGCGAAGAGA [Mat - Same State 1 - Mod of JL - D8] (puzzle: Same State 1)
[2]
  apparent KD of MS2 coat protein: 84.3 nM
[3]
  apparent KD of MS2 coat protein: 235 nM
[4]
  apparent KD of MS2 coat protein: 385 nM

## AUUAUGAAUGCAGGAUAUGAUUAACAUGAGGAUCACCCAUGUGGUGUUGUGAGUAAGGAGAGUGAUCAGAAGGGCAUUUUUUUU [JMF's solution 25] (Eterna round: R96, puzzle: Same State NG 2)
[1]
  apparent KD of MS2 coat protein: 465 nM

## AUUAUUAAUAUAGGAUAUGUAAAACAUGAGGAUCACCCAUGUGAUAUCGUGAGUAAGGAGAGAGAACAGAAGGAUAUUUUUUUU [JMF's solution 3] (Eterna round: R96, puzzle: Same State NG 2)
Input ligand: FMN 200 uM
  apparent KD of MS2 coat protein: 40.6 nM
[1]
  apparent KD of MS2 coat protein: 30.5 nM
Input ligand: none
  apparent KD of MS2 coat protein: 43.3 nM

## AUUAUUAAUGCAGGAUAUGAUUAACAUGAGGAUCACCCAUGUGGUGUUGUGAGUAAGGAGAGUGAUCAGAAGGGCAUAUUUUUU [JMF's solution 9] (Eterna round: R96, puzzle: Same State NG 2)
Input ligand: FMN 200 uM
  apparent KD of MS2 coat protein: 668 nM
[1]
  apparent KD of MS2 coat protein: 407 nM
Input ligand: none
  apparent KD of MS2 coat protein: 625 nM

Reference: the supplement of paper PMC9170038
